In the supplement of paper PMC10065799, “High-throughput profiling of sequence recognition by tyrosine kinases and SH2 domains using bacterial peptide display” (eLife, 2023):

Assays:
SHP2-C SH2 = experiment: SH2 binding enrichment of the phosphorylated peptide, bacterial display (enrichment ratio); higher = better substrate or ligand; peptides without Tyr show the background
Grb2 SH2 = Grb2 SH2 (UniProt P62993); experiment: as above
c-Src SH2 = experiment: as above
Fer (mouse) = experiment: phosphorylation enrichment, bacterial display (enrichment ratio); higher = better substrate or ligand; peptides without Tyr show the background
Fes = Fes (UniProt P07332); experiment: as above
Hck = Hck (UniProt P08631); experiment: as above
c-Src = experiment: as above
MERTK = MERTK (UniProt Q12866); experiment: as above
FGFR1 = FGFR1 (UniProt P11362); experiment: as above
c-Abl (mouse) = experiment: as above
AncSZ = experiment: as above
Fyn = Fyn (UniProt P06241); experiment: as above
EPHB1 = EPHB1 (UniProt P54762); experiment: as above
FGFR3 = FGFR3 (UniProt P22607); experiment: as above
EPHB2 = EPHB2 (UniProt P29323); experiment: as above
Jak2 = Jak2 (UniProt O60674); experiment: as above
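Throughout, for SH2 binding enrichment of the phosphorylated peptide, bacterial display: peptide library displayed on the E. coli surface as eCPX fusions, selected cells deep-sequenced, score is each peptide's frequency after selection divided by its frequency in the input.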
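Throughout, for phosphorylation enrichment, bacterial display: 11-residue human phosphosite peptides and single-mutation variants displayed on the E. coli surface, counted by deep sequencing, each peptide's frequency after selection divided by its frequency in the unselected input library; frequency after pTyr selection over input frequency; kinase dosed for 20-30% of maximal phosphorylation in three min.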

Chain of Hck (P08631 whole entry, looked up): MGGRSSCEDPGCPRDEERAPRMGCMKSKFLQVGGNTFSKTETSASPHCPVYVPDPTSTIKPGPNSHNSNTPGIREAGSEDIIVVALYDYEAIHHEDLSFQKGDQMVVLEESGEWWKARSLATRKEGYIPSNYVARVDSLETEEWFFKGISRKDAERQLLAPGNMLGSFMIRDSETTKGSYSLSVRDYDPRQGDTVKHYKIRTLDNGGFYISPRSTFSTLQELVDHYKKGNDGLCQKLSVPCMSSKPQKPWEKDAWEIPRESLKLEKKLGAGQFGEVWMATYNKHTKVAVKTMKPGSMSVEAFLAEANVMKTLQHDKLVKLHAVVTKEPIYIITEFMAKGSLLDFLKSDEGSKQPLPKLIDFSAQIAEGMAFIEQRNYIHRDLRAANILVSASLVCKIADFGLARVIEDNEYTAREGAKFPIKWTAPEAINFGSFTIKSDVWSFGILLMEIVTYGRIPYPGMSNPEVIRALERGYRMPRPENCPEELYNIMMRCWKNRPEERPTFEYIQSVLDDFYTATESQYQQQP
Chain of FGFR1 (P11362 whole entry, looked up): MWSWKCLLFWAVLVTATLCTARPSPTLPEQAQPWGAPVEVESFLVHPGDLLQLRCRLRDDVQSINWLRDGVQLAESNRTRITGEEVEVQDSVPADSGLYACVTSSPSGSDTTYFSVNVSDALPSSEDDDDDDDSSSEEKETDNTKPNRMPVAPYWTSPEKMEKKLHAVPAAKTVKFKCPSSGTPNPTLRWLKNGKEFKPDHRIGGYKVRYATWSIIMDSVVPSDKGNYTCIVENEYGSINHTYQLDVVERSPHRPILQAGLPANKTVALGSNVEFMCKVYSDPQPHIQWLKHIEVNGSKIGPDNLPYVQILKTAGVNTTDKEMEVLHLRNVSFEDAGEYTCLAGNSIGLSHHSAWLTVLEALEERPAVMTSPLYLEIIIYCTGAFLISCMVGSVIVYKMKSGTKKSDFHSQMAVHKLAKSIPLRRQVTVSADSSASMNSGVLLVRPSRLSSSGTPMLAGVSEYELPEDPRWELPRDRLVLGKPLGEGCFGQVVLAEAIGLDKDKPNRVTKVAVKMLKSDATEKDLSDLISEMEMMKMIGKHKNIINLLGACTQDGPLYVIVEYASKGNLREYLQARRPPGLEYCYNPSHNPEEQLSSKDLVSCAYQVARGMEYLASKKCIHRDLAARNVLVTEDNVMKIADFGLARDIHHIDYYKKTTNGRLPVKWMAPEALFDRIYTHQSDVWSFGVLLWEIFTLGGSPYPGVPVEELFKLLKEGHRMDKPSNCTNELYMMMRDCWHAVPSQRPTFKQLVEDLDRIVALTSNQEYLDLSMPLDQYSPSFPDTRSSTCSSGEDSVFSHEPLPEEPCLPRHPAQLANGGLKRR
Chain of Jak2 (O60674 whole entry, looked up, the tested form may be a part): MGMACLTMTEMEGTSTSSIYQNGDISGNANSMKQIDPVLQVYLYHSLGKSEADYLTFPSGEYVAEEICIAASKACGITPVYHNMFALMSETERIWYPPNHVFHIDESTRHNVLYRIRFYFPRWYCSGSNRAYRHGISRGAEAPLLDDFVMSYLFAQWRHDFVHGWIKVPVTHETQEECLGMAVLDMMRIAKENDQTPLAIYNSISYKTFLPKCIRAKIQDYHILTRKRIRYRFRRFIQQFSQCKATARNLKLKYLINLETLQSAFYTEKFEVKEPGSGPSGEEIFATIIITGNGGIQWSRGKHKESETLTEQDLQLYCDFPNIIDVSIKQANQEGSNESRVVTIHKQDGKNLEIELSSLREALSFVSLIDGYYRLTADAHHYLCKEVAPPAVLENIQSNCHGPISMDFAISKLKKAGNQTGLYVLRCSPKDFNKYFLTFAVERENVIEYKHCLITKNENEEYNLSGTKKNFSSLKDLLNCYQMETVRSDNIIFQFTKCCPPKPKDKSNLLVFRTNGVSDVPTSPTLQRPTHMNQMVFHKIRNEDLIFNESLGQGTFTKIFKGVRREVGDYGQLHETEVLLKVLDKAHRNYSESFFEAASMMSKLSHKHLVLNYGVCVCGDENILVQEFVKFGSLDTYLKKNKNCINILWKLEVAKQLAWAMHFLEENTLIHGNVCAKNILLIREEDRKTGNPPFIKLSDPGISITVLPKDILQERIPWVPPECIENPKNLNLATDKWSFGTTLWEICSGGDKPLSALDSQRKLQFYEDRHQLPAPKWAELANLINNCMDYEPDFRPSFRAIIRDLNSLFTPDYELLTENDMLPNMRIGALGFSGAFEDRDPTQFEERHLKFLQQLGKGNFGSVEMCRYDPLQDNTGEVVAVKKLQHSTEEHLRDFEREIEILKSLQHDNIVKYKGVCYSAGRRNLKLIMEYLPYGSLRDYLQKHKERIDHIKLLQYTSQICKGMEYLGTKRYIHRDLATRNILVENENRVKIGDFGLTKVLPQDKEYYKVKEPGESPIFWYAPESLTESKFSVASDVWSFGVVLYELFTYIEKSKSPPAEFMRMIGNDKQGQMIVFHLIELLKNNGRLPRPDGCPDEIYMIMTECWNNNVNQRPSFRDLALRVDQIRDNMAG
Chain of Fes (P07332 whole entry, looked up): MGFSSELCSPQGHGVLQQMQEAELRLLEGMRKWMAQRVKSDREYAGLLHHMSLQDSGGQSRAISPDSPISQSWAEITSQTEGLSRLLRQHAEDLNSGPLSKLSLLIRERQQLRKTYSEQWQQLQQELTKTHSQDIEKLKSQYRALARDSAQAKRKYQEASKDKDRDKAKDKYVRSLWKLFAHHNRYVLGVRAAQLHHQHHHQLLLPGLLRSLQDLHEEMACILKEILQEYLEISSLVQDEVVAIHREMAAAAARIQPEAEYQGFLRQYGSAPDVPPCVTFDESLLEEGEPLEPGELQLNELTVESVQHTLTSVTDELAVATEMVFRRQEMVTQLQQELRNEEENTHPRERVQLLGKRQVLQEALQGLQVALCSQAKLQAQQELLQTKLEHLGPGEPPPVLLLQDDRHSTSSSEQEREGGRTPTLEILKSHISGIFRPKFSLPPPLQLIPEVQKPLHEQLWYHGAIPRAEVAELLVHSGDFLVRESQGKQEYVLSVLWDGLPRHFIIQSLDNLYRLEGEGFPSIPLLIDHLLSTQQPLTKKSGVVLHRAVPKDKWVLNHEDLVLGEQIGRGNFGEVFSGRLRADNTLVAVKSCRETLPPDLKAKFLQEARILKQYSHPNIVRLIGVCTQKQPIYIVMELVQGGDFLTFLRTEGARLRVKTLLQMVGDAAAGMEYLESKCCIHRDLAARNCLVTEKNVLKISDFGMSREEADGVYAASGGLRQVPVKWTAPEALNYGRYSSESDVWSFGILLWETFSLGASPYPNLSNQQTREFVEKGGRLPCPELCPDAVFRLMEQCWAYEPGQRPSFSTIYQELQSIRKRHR
Chain of EPHB2 (P29323 whole entry, looked up): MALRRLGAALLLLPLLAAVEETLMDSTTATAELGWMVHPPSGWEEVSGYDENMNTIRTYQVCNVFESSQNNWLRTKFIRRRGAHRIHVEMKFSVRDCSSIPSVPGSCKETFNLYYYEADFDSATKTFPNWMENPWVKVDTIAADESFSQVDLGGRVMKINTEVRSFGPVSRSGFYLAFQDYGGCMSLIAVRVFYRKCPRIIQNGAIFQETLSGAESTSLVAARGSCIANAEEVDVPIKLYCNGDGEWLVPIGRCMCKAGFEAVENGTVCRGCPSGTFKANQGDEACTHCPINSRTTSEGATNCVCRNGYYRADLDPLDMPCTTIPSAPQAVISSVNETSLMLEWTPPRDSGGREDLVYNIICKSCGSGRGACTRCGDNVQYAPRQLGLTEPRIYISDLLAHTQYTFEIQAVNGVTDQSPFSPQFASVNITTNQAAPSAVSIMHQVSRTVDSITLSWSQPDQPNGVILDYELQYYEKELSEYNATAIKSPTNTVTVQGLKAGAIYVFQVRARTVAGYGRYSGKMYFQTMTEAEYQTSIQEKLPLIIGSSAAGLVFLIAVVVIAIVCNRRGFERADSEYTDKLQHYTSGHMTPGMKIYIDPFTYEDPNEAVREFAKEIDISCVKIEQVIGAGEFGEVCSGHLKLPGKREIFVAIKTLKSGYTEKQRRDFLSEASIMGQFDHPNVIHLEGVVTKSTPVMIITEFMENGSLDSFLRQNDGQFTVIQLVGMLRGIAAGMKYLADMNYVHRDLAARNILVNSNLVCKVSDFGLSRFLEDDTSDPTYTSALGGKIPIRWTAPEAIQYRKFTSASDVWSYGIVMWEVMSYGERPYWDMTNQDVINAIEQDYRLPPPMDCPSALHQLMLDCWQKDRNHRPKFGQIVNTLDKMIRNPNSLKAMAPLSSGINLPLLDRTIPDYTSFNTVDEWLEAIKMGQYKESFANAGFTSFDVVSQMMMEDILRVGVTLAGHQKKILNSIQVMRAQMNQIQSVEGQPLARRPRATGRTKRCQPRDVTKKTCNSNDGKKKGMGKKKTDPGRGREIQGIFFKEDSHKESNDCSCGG
Chain of Grb2 SH2 (P62993 whole entry, looked up): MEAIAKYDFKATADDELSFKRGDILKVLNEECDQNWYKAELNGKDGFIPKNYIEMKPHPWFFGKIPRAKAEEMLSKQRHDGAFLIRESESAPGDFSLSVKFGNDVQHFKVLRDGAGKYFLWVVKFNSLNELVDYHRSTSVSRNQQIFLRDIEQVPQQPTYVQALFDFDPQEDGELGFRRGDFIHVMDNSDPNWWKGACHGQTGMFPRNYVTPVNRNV

| Sequence | SH2 binding enrichment (SHP2-C SH2) | SH2 binding enrichment (Grb2 SH2) | SH2 binding enrichment (c-Src SH2) | phosphorylation enrichment (Fer (mouse)) | phosphorylation enrichment (Fes) | phosphorylation enrichment (Hck) | phosphorylation enrichment (c-Src) | phosphorylation enrichment (MERTK) | phosphorylation enrichment (FGFR1) | phosphorylation enrichment (c-Abl (mouse)) | phosphorylation enrichment (AncSZ) | phosphorylation enrichment (Fyn) | phosphorylation enrichment (EPHB1) | phosphorylation enrichment (FGFR3) | phosphorylation enrichment (EPHB2) | phosphorylation enrichment (Jak2) |
| --- | --- | --- | --- | --- | --- | --- | --- | --- | --- | --- | --- | --- | --- | --- | --- | --- |
| SVKVFYKKCWF [EPHA7_Y202_S207F_YF] | 0.765 | 0.764 | 0.441 | 0.544 | 1.23 | 0.513 | 0.478 | 0.425 | 0.533 | 0.816 | 1.06 | 0.568 | 0.782 | 0.833 | 0.518 | 1.01 |
| SVMAEYGLYGA [VSX2_Y219] | 0.609 | 0.908 | 0.593 | 3.74 | 0.882 | 6.45 | 4.66 | 0.502 | 0.529 | 0.628 | 0.709 | 6.65 | 0.732 | 0.57 | 1.53 | 0.59 |
| SVMAEYGLYRA [VSX2_Y219_G223R] | 0.702 | 0.734 | 0.447 | 0.512 | 0.862 | 6.46 | 6.41 | 0.552 | 0.537 | 0.945 | 0.951 | 7.16 | 0.701 | 0.578 | 1.28 | 0.569 |
| SVTCKYSPALN [TP53_Y126_T125K] | 0.654 | 0.752 | 0.363 | 0.392 | 0.795 | 0.431 | 0.454 | 0.386 | 0.429 | 0.458 | 0.638 | 0.344 | 0.431 | 0.515 | 0.457 | 0.629 |
| SVTCRYSPALN [TP53_Y126_T125R] | 0.539 | 0.663 | 0.366 | 0.437 | 0.938 | 0.392 | 0.427 | 0.514 | 0.413 | 0.611 | 0.864 | 0.397 | 0.508 | 0.561 | 0.446 | 0.805 |
| SVTRTYSPALN [TP53_Y126_C124R] | 0.579 | 0.961 | 0.424 | 0.485 | 0.522 | 0.345 | 0.399 | 0.313 | 0.394 | 0.427 | 0.445 | 0.384 | 0.313 | 0.418 | 0.378 | 0.429 |
| SVVEPYEPPEV [TP53_Y220_V218E] | 0.726 | 1.13 | 0.608 | 0.462 | 1.1 | 0.472 | 0.4 | 0.442 | 0.521 | 0.601 | 1.29 | 0.741 | 0.541 | 0.654 | 0.533 | 0.985 |
| SVVGPYEPPEV [TP53_Y220_V218G] | 0.618 | 0.935 | 0.523 | 0.498 | 1.05 | 0.505 | 0.441 | 0.409 | 0.432 | 0.728 | 1.14 | 0.403 | 0.579 | 0.69 | 0.526 | 0.855 |
| SVVVPYEPPEA [TP53_Y220_V225A] | 0.675 | 0.967 | 0.795 | 0.593 | 1.19 | 0.54 | 0.574 | 0.54 | 0.496 | 0.859 | 1.28 | 0.483 | 0.61 | 0.738 | 0.536 | 1.1 |
| SVVVPYEPPVV [TP53_Y220_E224V] | 0.627 | 0.709 | 0.606 | 0.457 | 0.921 | 0.437 | 0.437 | 0.397 | 0.446 | 0.659 | 1 | 0.453 | 0.518 | 0.61 | 0.574 | 0.731 |
| SVVVPYEQPEV [TP53_Y220_P222Q] | 0.856 | 0.962 | 3.08 | 0.568 | 1.28 | 0.612 | 0.69 | 0.544 | 0.604 | 1.03 | 1.37 | 0.532 | 0.652 | 0.774 | 0.715 | 1.24 |
| TAVNGYAFGGG [ECHS1_Y137_A132T] | 0.093 | 0.683 | 0.399 | 0.62 | 0.723 | 0.419 | 0.561 | 0.462 | 0.404 | 0.592 | 0.558 | 0.593 | 0.417 | 0.922 | 0.531 | 0.737 |
| TCFDKYTGNTY [FN1_Y101] | 0.754 | 0.924 | 0.472 | 0.534 | 1.16 | 0.516 | 0.584 | 0.345 | 0.463 | 0.717 | 1.3 | 0.511 | 0.519 | 0.648 | 0.63 | 1.01 |
| TEFIQYVRRKN [MAX_Y73_M74V_YF] | 0.609 | 0.863 | 0.492 | 0.483 | 0.626 | 0.559 | 0.473 | 0.639 | 0.74 | 0.435 | 0.66 | 0.675 | 0.48 | 0.653 | 0.551 | 0.521 |
| TEHMAYCPIQC [SHC4_Y403_Q400H] | 0.685 | 0.821 | 1.2 | 0.557 | 0.821 | 0.805 | 0.764 | 0.416 | 0.458 | 0.661 | 0.72 | 0.466 | 0.489 | 0.638 | 0.524 | 0.778 |
| TEQDPYNNIVC [MMUT_Y364_R369C] | 0.814 | 0.86 | 1.52 | 0.627 | 1.22 | 0.566 | 0.642 | 0.528 | 0.659 | 0.784 | 1.14 | 0.555 | 0.555 | 0.666 | 0.572 | 0.952 |
| TESNNYIFTTL [FAM83B_Y637_K640T_YF] | 0.821 | 0.922 | 0.502 | 0.722 | 1.27 | 0.571 | 0.537 | 0.612 | 1.02 | 0.982 | 1.12 | 0.539 | 0.687 | 0.912 | 0.641 | 1.11 |
